Biological target: valosin-containing protein (VCP)/p97 (UniProt P55072 1-806, labeled with Terbium (CoraFluor), DOL 0.33, in the TR-FRET assays)
Assay: FRET or BRET

valosin-containing protein (VCP)/p97, sequence (P55072 whole entry): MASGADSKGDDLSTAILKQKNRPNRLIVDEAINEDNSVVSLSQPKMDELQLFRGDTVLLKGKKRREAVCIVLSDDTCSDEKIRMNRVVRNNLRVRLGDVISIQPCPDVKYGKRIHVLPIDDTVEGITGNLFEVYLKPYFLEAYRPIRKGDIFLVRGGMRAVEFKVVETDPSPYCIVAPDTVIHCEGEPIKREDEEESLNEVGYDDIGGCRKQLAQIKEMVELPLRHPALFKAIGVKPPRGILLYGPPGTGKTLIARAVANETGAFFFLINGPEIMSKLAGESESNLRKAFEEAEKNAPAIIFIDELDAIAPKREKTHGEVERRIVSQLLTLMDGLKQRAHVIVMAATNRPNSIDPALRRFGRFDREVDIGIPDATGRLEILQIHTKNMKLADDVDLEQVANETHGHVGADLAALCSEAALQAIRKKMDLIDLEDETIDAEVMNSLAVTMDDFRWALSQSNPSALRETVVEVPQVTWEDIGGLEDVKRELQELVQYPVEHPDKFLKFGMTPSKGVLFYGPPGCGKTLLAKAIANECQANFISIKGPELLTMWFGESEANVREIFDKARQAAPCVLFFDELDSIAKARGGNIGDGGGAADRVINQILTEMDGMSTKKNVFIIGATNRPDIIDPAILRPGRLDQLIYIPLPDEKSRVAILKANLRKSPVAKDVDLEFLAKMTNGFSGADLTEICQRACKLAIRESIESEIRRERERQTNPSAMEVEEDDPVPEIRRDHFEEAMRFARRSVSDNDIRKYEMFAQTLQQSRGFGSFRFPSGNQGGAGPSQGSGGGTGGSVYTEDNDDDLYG

B1: valosin contain protein p97/p47 interacting protein 1 (VCPIP1), wild type (enzyme)
chain: MSQPPPPPPPLPPPPPPPEAPQTPSSLASAAASGGLLKRRDRRILSGSCPDPKCQARLFFPASGSVSIECTECGQRHEQQQLLGVEEVTDPDVVLHNLLRNALLGVTGAPKKNTELVKVMGLSNYHCKLLSPILARYGMDKQTGRAKLLRDMNQGELFDCALLGDRAFLIEPEHVNTVGYGKDRSGSLLYLHDTLEDIKRANKSQECLIPVHVDGDGHCLVHAVSRALVGRELFWHALRENLKQHFQQHLARYQALFHDFIDAAEWEDIINECDPLFVPPEGVPLGLRNIHIFGLANVLHRPIILLDSLSGMRSSGDYSATFLPGLIPAEKCTGKDGHLNKPICIAWSSSGRNHYIPLVGIKGAALPKLPMNLLPKAWGVPQDLIKKYIKLEEDGGCVIGGDRSLQDKYLLRLVAAMEEVFMDKHGIHPSLVADVHQYFYRRTGVIGVQPEEVTAAAKKAVMDNRLHKCLLCGALSELHVPPEWLAPGGKLYNLAKSTHGQLRTDKNYSFPLNNLVCSYDSVKDVLVPDYGMSNLTACNWCHGTSVRKVRGDGSIVYLDGDRTNSRSTGGKCGCGFKHFWDGKEYDNLPEAFPITLEWGGRVVRETVYWFQYESDSSLNSNVYDVAMKLVTKHFPGEFGSEILVQKVVHTILHQTAKKNPDDYTPVNIDGAHAQRVGDVQGQESESQLPTKIILTGQKTKTLHKEELNMSKTERTIQQNITEQASVMQKRKTEKLKQEQKGQPRTVSPSTIRDGPSSAPATPTKAPYSPTTSKEKKIRITTNDGRQSMVTLKSSTTFFELQESIAREFNIPPYLQCIRYGFPPKELMPPQAGMEKEPVPLQHGDRITIEILKSKAEGGQSAAAHSAHTVKQEDIAVTGKLSSKELQEQAEKEMYSLCLLATLMGEDVWSYAKGLPHMFQQGGVFYSIMKKTMGMADGKHCTFPHLPGKTFVYNASEDRLELCVDAAGHFPIGPDVEDLVKEAVSQVRAEATTRSRESSPSHGLLKLGSGGVVKKKSEQLHNVTAFQGKGHSLGTASGNPHLDPRARETSVVRKHNTGTDFSNSSTKTEPSVFTASSSNSELIRIAPGVVTMRDGRQLDPDLVEAQRKKLQEMVSSIQASMDRHLRDQSTEQSPSDLPQRKTEVVSSSAKSGSLQTGLPESFPLTGGTENLNTETTDGCVADALGAAFATRSKAQRGNSVEELEEMDSQDAEMTNTTEPMDHS
modifications: labeled with BODIPY, DOL 0.23, as the labelled partner in the TR-FRET assays; unlabeled as competitor
Question: Which IC50 does the source give for B1 here?
Answer: 74.5 ± 13.9 nM

B2: p47 (natural protein)
chain: MAAERQEALREFVAVTGAEEDRARFFLESAGWDLQIALASFYEDGGDEDIVTISQATPSSVSRGTAPSDNRVTSFRDLIHDQDEDEEEEEGQRFYAGGSERSGQQIVGPPRKKSPNELVDDLFKGAKEHGAVAVERVTKSPGETSKPRPFAGGGYRLGAAPEEESAYVAGEKRQHSSQDVHVVLKLWKSGFSLDNGELRSYQDPSNAQFLESIRRGEVPAELRRLAHGGQVNLDMEDHRDEDFVKPKGAFKAFTGEGQKLGSTAPQVLSTSSPAQQAENEAKASSSILIDESEPTTNIQIRLADGGRLVQKFNHSHRISDIRLFIVDARPAMAATSFILMTTFPNKELADESQTLKEANLLNAVIVQRLT
Question: B2 was tested. Which IC50 did it give?
Answer: 20.4 ± 2.8 nM

Source: publication doi:10.1101/2024.10.01.616120 (bioRxiv, 2024)
